From US20200392227A1 (LYVGEN BIOPHARMA, published 2020)
Where two headings read alike, the source gives them in different places.

Legend:
Test in all cases: BLI
[1] = target: T1, human FcRIIB/C protein (MednaBio, E1034) (human, UniProt P31994 43-217, limits assumed)
T1 construct: Bought as FcRIIB/C; also called FcγRIIB; CD32B
T1 sequence (looked up): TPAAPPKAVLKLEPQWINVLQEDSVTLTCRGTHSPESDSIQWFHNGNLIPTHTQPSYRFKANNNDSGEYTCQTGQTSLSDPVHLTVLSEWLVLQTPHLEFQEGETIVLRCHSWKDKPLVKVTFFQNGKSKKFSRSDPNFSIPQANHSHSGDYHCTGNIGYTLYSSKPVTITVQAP
Summary of the method: (§1)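 Binding was measured by biolayer interferometry on an Octet Red96 System. Commercial human Fc receptor proteins were loaded at 20 μg/mL onto anti-penta-HIS biosensors, which were then dipped into an 8-point 1:3 dilution series of test IgG starting at 300 nM in PBS with 0.1% BSA and 0.02% Tween-20, at pH 7.2 for Fcγ receptors and pH 6 for FcRn. Kd, kon and koff were obtained by global fitting, with data fitted to a 1:1 binding model.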

[2] = target: T2, human FcRn protein (MednaBio, E1032) (human, UniProt P55899 24-297; P61769 21-119)
T2 construct: Bought; assays at pH 6
T2 sequence (P55899 24-297 limits assumed, form in doubt, chain 1 of 2): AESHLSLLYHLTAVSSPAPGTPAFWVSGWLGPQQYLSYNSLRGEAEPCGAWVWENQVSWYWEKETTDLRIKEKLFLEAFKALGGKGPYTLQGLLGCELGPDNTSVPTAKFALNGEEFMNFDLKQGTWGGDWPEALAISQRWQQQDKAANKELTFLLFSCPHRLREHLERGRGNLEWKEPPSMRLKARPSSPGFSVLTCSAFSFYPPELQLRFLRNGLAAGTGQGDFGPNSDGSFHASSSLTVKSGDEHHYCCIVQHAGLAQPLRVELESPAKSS
T2 sequence (P61769 21-119 limits assumed, form in doubt, chain 2 of 2): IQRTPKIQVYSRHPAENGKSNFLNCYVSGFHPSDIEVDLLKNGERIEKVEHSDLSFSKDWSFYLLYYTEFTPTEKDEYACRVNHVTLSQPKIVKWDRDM
Summary of the method: as §1

[3] = target: T3, human FcRIIIA-V158 protein (MednaBio, E1035) (human, UniProt P08637 17-208)
T3 construct: Bought; also called FcγRIIIA(V); FcgRIIIA(V)
T3 sequence (P08637 17-208 F176V): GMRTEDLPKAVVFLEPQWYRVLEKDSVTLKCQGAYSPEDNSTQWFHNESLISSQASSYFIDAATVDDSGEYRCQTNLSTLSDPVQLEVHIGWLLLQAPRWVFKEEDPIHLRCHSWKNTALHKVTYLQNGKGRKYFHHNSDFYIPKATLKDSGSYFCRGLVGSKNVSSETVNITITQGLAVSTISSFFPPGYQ
Summary of the method: as §1

[4] = target: T4, human FcRI protein (MednaBio, E1031) (human, UniProt P12314 16-288, limits assumed)
T4 construct: Bought; loaded on anti-penta-HIS biosensors; also called FcγRI
T4 sequence (P12314 16-288 limits assumed): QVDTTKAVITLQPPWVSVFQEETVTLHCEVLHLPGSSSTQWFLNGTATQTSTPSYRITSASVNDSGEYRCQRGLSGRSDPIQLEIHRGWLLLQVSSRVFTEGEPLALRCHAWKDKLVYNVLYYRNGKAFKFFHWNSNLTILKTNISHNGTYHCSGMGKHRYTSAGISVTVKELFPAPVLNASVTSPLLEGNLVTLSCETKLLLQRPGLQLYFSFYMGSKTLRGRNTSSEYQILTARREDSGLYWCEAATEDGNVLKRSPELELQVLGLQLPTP
Summary of the method: as §1

[5] = target: T5, human FcRIIIA-F158 protein (MednaBio, E1036) (human, UniProt P08637 17-208)
T5 construct: Bought; also called FcγRIIIA(F)
T5 sequence (P08637 17-208 limits assumed): as the sequence (P08637 17-208 F176V) above, with V160F counted along it
Summary of the method: as §1

[6] = target: T1, human FcRIIB/C protein (MednaBio, E1034); remark: listed apart in the source
Summary of the method: as §1

[7] = target: T2, human FcRn protein (MednaBio, E1032); remark: listed apart in the source
Summary of the method: as §1

[8] = target: T3, human FcRIIIA-V158 protein (MednaBio, …); remark: listed apart in the source
Summary of the method: as §1

[9] = target: T4, human FcRI protein (MednaBio, E1031); remark: listed apart in the source
Summary of the method: as §1

[10] = target: T6, human FcRIIIB protein (MednaBio, E1037) (human, UniProt O75015 17-200)
T6 construct: Bought; also called FcγRIIIB; FcgRIIIB
T6 sequence (O75015 17-200 limits assumed): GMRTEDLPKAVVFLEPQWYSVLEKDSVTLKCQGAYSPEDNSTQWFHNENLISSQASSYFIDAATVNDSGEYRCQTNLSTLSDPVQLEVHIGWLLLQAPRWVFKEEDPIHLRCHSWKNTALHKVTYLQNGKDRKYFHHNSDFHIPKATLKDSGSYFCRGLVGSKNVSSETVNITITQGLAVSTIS
Summary of the method: as §1

[11] = target: T7, human FcRIIA protein (MednaBio, E1033) (human, UniProt P12318 34-218, limits assumed)
T7 construct: Bought; also called FcγRIIA
T7 sequence (looked up): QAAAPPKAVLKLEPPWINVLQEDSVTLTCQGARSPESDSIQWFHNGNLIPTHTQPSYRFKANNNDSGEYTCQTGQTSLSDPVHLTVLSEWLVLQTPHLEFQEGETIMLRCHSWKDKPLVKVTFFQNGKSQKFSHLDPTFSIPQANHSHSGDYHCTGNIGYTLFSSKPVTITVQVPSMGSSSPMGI
Summary of the method: as §1

[12] = target: T5, human FcRIIIA-F158 protein (MednaBio, …); remark: listed apart in the source
Summary of the method: as §1

[13] = target: T6, human FcRIIIB protein (MednaBio, E1037); remark: listed apart in the source
Summary of the method: as §1

[14] = target: T1, human FcRIIB/C protein (MednaBio, E1034); remark: listed apart in the source
Summary of the method: as §1

[15] = target: T2, human FcRn protein (MednaBio, E1032); remark: listed apart in the source
Summary of the method: as §1

[16] = target: T3, human FcRIIIA-V158 protein (MednaBio, …); remark: listed apart in the source
Summary of the method: as §1

[17] = target: T4, human FcRI protein (MednaBio, E1031); remark: listed apart in the source
Summary of the method: as §1

[18] = target: T7, human FcRIIA protein (MednaBio, E1033); remark: listed apart in the source
Summary of the method: as §1

[19] = target: T1, human FcRIIB/C protein (MednaBio, E1034); remark: listed apart in the source
Summary of the method: as §1

[20] = target: T3, human FcRIIIA-V158 protein (MednaBio, …); remark: listed apart in the source
Summary of the method: as §1

B1: wild-type human IgG1 control (antibody)
heavy: not shown
light: SYELTQPPSVSVSPGQTASITCSGDNIGDQYAHWYQQKPGQSPVLVIYQDKNRPSGIPERFSGSNSGNTATLTISGTQAMDEADYYCATYTGFGSLAVFGGGTKLTVLGQPKAAPSVTLFPPSSEELQANKATLVCLISDFYPGAVTVAWKADSSPVKAGVETTTPSKQSNNKYAASSYLSLTPEQWKSHRSYSCQVTHEGSTVEKTVAPTECS
notes: Control IgG
Kd [1]: 130 nM
koff [1]: 0.016 s⁻¹
kon [1]: 120000 M⁻¹ s⁻¹
Kd [2]: 16 nM
koff [2]: 0.008 s⁻¹
kon [2]: 480000 M⁻¹ s⁻¹
Kd [3]: 60 nM
koff [3]: 0.027 s⁻¹
kon [3]: 450000 M⁻¹ s⁻¹
Kd [4]: 5.6 nM
koff [4]: 0.0012 s⁻¹
kon [4]: 220000 M⁻¹ s⁻¹
Kd [5]: 120 nM
koff [5]: 0.02 s⁻¹
kon [5]: 170000 M⁻¹ s⁻¹
Kd [6]: 130 nM
koff [6]: 0.016 s⁻¹
kon [6]: 120000 M⁻¹ s⁻¹
Kd [7]: 16 nM
koff [7]: 0.008 s⁻¹
kon [7]: 480000 M⁻¹ s⁻¹
Kd [8]: 60 nM
koff [8]: 0.027 s⁻¹
kon [8]: 450000 M⁻¹ s⁻¹
Kd [9]: 5.6 nM
koff [9]: 0.0012 s⁻¹
kon [9]: 220000 M⁻¹ s⁻¹
Kd [10]: 130 nM
koff [10]: 0.027 s⁻¹
kon [10]: 210000 M⁻¹ s⁻¹
Kd [11]: 56 nM
koff [11]: 0.032 s⁻¹
kon [11]: 570000 M⁻¹ s⁻¹
Kd [12]: 120 nM
koff [12]: 0.02 s⁻¹
kon [12]: 170000 M⁻¹ s⁻¹
Kd [13]: 130 nM
koff [13]: 0.027 s⁻¹
kon [13]: 210000 M⁻¹ s⁻¹
Kd [14]: 130 nM
koff [14]: 0.016 s⁻¹
kon [14]: 120000 M⁻¹ s⁻¹
Kd [15]: 16 nM
koff [15]: 0.008 s⁻¹
kon [15]: 480000 M⁻¹ s⁻¹
Kd [16]: 60 nM
koff [16]: 0.027 s⁻¹
kon [16]: 450000 M⁻¹ s⁻¹
Kd [17]: 5.6 nM
koff [17]: 0.0012 s⁻¹
kon [17]: 220000 M⁻¹ s⁻¹
Kd [18]: 56 nM
koff [18]: 0.032 s⁻¹
kon [18]: 570000 M⁻¹ s⁻¹

B2: wild-type human IgG4 control (antibody)
heavy: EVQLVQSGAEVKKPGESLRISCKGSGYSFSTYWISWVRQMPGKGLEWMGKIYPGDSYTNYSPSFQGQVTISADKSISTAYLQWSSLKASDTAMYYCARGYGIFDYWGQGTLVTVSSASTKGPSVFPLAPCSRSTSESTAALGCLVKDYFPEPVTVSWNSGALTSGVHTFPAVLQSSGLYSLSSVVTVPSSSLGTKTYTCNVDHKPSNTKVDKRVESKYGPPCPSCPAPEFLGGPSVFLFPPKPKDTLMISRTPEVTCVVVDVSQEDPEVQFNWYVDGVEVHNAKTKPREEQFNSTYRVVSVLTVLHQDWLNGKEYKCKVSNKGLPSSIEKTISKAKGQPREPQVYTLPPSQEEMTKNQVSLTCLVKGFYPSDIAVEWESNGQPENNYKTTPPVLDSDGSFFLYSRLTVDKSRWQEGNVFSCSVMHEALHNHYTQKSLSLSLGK
light: SYELTQPPSVSVSPGQTASITCSGDNIGDQYAHWYQQKPGQSPVLVIYQDKNRPSGIPERFSGSNSGNTATLTISGTQAMDEADYYCATYTGFGSLAVFGGGTKLTVLGQPKAAPSVTLFPPSSEELQANKATLVCLISDFYPGAVTVAWKADSSPVKAGVETTTPSKQSNNKYAASSYLSLTPEQWKSHRSYSCQVTHEGSTVEKTVAPTECS
notes: Control IgG
Kd [1]: 400 nM
koff [1]: 0.05 s⁻¹
kon [1]: 140000 M⁻¹ s⁻¹
Kd [2]: 18 nM
koff [2]: 0.012 s⁻¹
kon [2]: 640000 M⁻¹ s⁻¹
Kd [3]: 550 nM
koff [3]: 0.092 s⁻¹
kon [3]: 170000 M⁻¹ s⁻¹
Kd [4]: 4.8 nM
koff [4]: 0.0017 s⁻¹
kon [4]: 360000 M⁻¹ s⁻¹
Kd [19]: 400 nM
koff [19]: 0.05 s⁻¹
kon [19]: 140000 M⁻¹ s⁻¹
Kd [20]: 550 nM
koff [20]: 0.092 s⁻¹
kon [20]: 170000 M⁻¹ s⁻¹
Kd [14]: 400 nM
koff [14]: 0.05 s⁻¹
kon [14]: 140000 M⁻¹ s⁻¹
Kd [15]: 18 nM
koff [15]: 0.012 s⁻¹
kon [15]: 640000 M⁻¹ s⁻¹
Kd [16]: 550 nM
koff [16]: 0.092 s⁻¹
kon [16]: 170000 M⁻¹ s⁻¹
Kd [17]: 4.8 nM
koff [17]: 0.0017 s⁻¹
kon [17]: 360000 M⁻¹ s⁻¹
Kd [18]: 400 nM
koff [18]: 0.055 s⁻¹
kon [18]: 140000 M⁻¹ s⁻¹
